Assay results published in patent US20240010735A1 (EISAI R AND D MANAGEMENT, published 2024).

Key:
Test in all cases: ELISA: Fc-His proteins (1 nM) captured on anti-6-His antibody, antibody B 10 µg/mL with human IgG 100 µg/mL, HRP anti-human kappa light chain antibody, OD450 as % of mouse EphA4-Fc-His
[1] = target: T1, mouse EphB1 extracellular region-Fc-His protein (mouse; human, UniProt Q8CBF3 18-540)
T1 construct: extracellular domain; not shown: Fc region of human IgG1; histidine tag
T1 sequence (looked up): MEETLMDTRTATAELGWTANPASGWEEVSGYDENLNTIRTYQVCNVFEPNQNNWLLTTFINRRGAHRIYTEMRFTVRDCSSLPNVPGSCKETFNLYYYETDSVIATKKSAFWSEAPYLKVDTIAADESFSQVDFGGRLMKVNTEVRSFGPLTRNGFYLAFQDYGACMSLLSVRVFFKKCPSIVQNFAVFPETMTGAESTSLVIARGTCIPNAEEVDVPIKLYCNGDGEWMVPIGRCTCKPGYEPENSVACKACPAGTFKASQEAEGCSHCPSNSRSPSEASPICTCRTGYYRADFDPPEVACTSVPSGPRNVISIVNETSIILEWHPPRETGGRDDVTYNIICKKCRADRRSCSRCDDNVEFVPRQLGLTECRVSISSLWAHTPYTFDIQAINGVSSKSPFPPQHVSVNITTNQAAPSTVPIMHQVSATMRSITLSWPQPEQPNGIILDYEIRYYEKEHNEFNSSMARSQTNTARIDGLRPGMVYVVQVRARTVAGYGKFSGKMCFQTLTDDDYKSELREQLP
Procedure: (§1) Rabbit anti-6-His antibodies (Bethyl Laboratories) were coated onto the wells of a 96-well plate (Nunc). After incubating at 4° C. overnight, the wells were blocked at room temperature for 1 hour by 1% Block Ace (DS Pharma Biomedical). After washing 3 times with 0.05% Tween 20/PBS (Thermo […]), each Eph receptor of mouse extracellular region-Fc-His protein (final concentration 1 nM) was seeded into each well, and incubated at room temperature for 1 hour. After washing 3 times, human IgG solution (100 μg/mL, Sigma) and antibody B (10 μg/mL) were supplemented to the wells, and incubated at room temperature for 1 hour. Horseradish peroxidase-labeled goat anti-human Kappa Light Chain antibody (IBL) was added, and incubated at room temperature for 1 hour. After washing 3 times, TMBZ (3,3′,5,5′-tetramethylbenzidine, Sigma) solution was added to the wells, and upon confirmation of modest coloring, an equal amount of quenching solution (1 N H₂SO₄, Wako Pure Chemicals) was added to the wells, and absorbance at 450 nm was read by a microplate reader (PerkinElmer).

[2] = target: T2, mouse EphA8 extracellular region-Fc-His protein (mouse; human, UniProt O09127 27-541)
T2 construct: extracellular domain; not shown: Fc region of human IgG1; histidine tag
T2 sequence (looked up): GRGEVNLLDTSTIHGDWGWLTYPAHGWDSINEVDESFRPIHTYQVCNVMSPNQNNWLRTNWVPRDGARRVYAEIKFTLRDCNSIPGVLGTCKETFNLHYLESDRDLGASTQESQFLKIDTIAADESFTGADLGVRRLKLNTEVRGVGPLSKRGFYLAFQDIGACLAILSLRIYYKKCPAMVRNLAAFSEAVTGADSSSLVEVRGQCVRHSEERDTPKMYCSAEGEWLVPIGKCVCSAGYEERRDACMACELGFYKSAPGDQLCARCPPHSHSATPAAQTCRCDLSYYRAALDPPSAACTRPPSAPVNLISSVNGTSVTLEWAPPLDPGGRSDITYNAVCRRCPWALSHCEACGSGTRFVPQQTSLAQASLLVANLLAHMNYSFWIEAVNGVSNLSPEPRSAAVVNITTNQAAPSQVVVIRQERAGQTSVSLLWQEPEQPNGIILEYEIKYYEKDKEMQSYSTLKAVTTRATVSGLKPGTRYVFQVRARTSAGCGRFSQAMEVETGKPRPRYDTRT
Procedure: as §1

[3] = target: T3, mouse EphA7 extracellular region-Fc-His protein (mouse; human, UniProt Q61772 28-555)
T3 construct: extracellular domain; not shown: Fc region of human IgG1; histidine tag
T3 sequence (looked up): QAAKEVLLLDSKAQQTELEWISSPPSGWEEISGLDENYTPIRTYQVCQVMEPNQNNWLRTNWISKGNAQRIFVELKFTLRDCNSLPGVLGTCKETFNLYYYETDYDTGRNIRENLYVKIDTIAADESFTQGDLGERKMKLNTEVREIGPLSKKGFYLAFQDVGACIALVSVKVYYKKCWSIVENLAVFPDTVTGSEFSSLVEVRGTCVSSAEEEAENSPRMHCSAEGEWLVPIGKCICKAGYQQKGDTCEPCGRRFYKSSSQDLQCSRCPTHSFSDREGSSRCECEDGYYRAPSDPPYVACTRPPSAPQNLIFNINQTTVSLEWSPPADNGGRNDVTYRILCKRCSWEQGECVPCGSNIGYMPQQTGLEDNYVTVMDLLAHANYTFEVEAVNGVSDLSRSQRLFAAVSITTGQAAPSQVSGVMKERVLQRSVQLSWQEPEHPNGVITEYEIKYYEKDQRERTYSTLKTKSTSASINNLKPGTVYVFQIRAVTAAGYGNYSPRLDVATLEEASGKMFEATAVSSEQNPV
Procedure: as §1

Measured: binding result

B1: humanized anti-EphA4 monoclonal antibody (antibody B) (antibody, human IgG2, V domains shown)
VH: QVQLVESGGGVVQPGRSLRLSCAVSGFSLTRFGVHWVRQAPGKGLEWVAVIWRGGSTDYNAAFMSRLTISKDNSKNTVYLQMNSLRAEDTAVYYCAKESLFGVYYDYGYYSMDYWGQGTTVTVSS
VL: DIQMTQSPSSLSASVGDRVTITCRASQEISGYLSWLQQKPGKAPKRLIYAASTLDSGVPSRFSGSRSGTEYTLTISSLQPEDFATYYCLQYASYPLTFGGGTKVEIKR
notes: expressed in Expi293F cells; also called humanized antibody of antibody A; HK2-42 / L1-8
no binding (tested: 10 µg/mL): all assays above
